According to patent US20100069815A1:

Tests used:
[1] = molecular target: CD2 on CD2 positive cells in human peripheral blood (human) (UniProt P06729); assay: specificity control, cells recovered after the column (not adsorbed), without biotin block; flow cytometry; mean ± SD of 3
[2] = molecular target: CD2 on CD2 positive cells in human peripheral blood (human) (UniProt P06729); assay: specificity control, cells recovered after the column (not adsorbed), with biotin block; flow cytometry; mean ± SD of 3
[3] = molecular target: CD8 on CD8 positive cells in human peripheral blood (human) (UniProt P01732); assay: specificity control, cells recovered after the column (not adsorbed); flow cytometry; mean ± SD of 3
Chain of CD8 on CD8 positive cells in human peripheral blood (human) (P01732 22-235): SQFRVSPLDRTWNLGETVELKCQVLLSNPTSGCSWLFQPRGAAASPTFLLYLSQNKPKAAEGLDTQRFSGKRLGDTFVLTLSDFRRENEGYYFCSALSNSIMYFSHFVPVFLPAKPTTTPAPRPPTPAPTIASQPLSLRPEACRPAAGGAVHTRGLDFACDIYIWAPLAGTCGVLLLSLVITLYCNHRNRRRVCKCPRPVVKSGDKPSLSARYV

Chain of CD2 on CD2 positive cells in human peripheral blood (human) (P06729 25-351): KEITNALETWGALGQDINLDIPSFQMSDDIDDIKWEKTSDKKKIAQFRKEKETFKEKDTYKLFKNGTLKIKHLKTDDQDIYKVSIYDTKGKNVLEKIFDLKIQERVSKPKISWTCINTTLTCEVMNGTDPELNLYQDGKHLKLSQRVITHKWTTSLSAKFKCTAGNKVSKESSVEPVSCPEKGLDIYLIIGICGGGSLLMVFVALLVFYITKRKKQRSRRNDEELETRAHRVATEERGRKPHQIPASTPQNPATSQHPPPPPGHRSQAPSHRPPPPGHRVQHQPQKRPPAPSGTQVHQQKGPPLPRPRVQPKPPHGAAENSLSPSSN

CD2 positive cell recovery rate (%) [1]	CD2 positive cell recovery rate (%) [2]	CD8 positive cell recovery rate (%) [3]	Substance
76.4%	78.7%		4G7 scFv-SA
		78.9%	Leu3a scFv-Normal
